Reference: US20130078245A1 (REGENTS OF THE UNIVERSITY OF COLORADO A BODY CORPORATE, published 2013)

Biological target: T1, recombinant human C3d (human, UniProt P01024 996-1303, limits assumed)
T1 construct: domain: C3d; The Biacore paragraph says only C3d; also called recombinant C3d
Experiment: BIAcore SPR, C3d immobilized on the chip, antibody at 10, 30 and 90 nM in flow, 1:1 Langmuir fit
Text: The binding affinity of the anti-C3d/C3dg antibodies to C3d was further tested by BIAcore analysis.

T1 sequence (P01024 996-1303 limits assumed): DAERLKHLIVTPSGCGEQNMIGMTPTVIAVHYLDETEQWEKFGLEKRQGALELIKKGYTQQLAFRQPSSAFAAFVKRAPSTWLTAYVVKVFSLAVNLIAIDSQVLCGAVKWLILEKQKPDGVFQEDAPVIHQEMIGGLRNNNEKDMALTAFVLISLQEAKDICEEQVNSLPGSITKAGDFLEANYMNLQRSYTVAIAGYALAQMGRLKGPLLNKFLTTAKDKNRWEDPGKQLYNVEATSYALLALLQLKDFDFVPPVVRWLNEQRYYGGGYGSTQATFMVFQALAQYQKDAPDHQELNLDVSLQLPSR

B1: mouse monoclonal anti-C3d antibody 3d29, produced by hybridoma cell line 3d-29/5/2 (ATCC PTA-11000) (antibody, V domains shown)
VH: EVQLQQSGPVLVKPGASVKMSCKASGYTFTDYYMNWVKQSHGKSLEWIGVINPYNGGTSYNQKFKGKATLTVDKSSRTAYMELNSLTSEDSAVYYCSRGGPYWGQGTTLTVSS
VL: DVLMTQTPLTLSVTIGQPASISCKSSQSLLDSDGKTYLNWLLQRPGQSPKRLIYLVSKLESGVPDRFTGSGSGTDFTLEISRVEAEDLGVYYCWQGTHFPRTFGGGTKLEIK
notes: Whole mouse IgG purified on protein G; also called mAb 3d29; clone 3d29
Q: How did the Kd turn out when B1 was run?
A: 1.06 nM
